Our source for the In Vitro Score (score, % of positive control peptide) values is patent US20200297760A1, “COMPOSITIONS AND METHODS FOR REDUCING IMMUNE RESPONSES AGAINST CHIMERIC ANTIGEN RECEPTORS” (Juno Therapeutics, Inc., priority 2015, published 2020).

The target of assay [1] is HLA-A*11:01 (recombinant MHC class I molecule) (human). The assay is described as follows: REVEAL MHC-peptide binding assay, recombinant HLA-A*11:01. As to conditions: remark: other sources report otherwise.
Assay [2] has as its target HLA-B*08:01 (recombinant MHC class I molecule) (human). The assay is described as follows: REVEAL MHC-peptide binding assay, recombinant HLA-B*08:01. As to conditions: remark: other sources report otherwise.

B1: Synthetic peptide … (peptide)
peptide: VAFIIFWVK
For B1, the In Vitro Score (score, % of positive control peptide) in assay [1] is 109; in assay [2] it was 0.3.

B2: Synthetic peptide … (peptide)
peptide: WVQRGRKKL
Turning to B2, the In Vitro Score (score, % of positive control peptide) in assay [1] amounted to 12.8; in assay [2], 45.1.

B3: Synthetic peptide … (peptide)
peptide: AFIIFWVSR
Regarding B3, the In Vitro Score (score, % of positive control peptide) in assay [1] stood at 54; in assay [2], 0.3.

B4: Synthetic peptide … (peptide)
peptide: VAFIIFWVS
Turning to B4, the In Vitro Score (score, % of positive control peptide) was 25.1 in assay [1] and 0.1 in assay [2].

B5: Synthetic peptide … (peptide)
peptide: IIFWVARGR
For the molecule B5, the In Vitro Score (score, % of positive control peptide) was 70.6 in assay [1] and 0.3 in assay [2].

B6: Synthetic peptide … (peptide)
peptide: IIFWVHRGR
B6: the In Vitro Score (score, % of positive control peptide) in assay [1] stood at 77.5; in assay [2], 0.2.

B7: Synthetic peptide … (peptide)
peptide: IFWVQRGRK
B7: the In Vitro Score (score, % of positive control peptide) was 128 in assay [1] and 0 in assay [2].

B8: Synthetic peptide … (peptide)
peptide: IIFWVKRGR
On to B8, for which the In Vitro Score (score, % of positive control peptide) in assay [1] is 54.5; in assay [2], 0.

B9: Synthetic peptide … (peptide)
peptide: FIIFWVHRG
Regarding B9, the In Vitro Score (score, % of positive control peptide) turned out to be 0.9 in assay [1] and 0.2 in assay [2].

B10: Synthetic peptide … (peptide)
peptide: IFWVARGRK
With B10, the values for the In Vitro Score (score, % of positive control peptide) in assay [1] and in assay [2] were 34.9 and 0, respectively.

B11: Synthetic peptide … (peptide)
peptide: IIFWVQRGR
On to B11, for which the In Vitro Score (score, % of positive control peptide) in assay [1] was determined as 72.8; in assay [2] it was 0.1.

B12: Synthetic peptide … (peptide)
peptide: IFWVHRGRK
For the molecule B12, the In Vitro Score (score, % of positive control peptide) worked out at 36.6 in assay [1] and 0.1 in assay [2].

B13: Synthetic peptide … (peptide)
peptide: AFIIFWVHR
Turning to B13, the In Vitro Score (score, % of positive control peptide) came out at 34.9 in assay [1] and 0.3 in assay [2].

B14: Synthetic peptide … (peptide)
peptide: IFWVSRGRK
As to B14, the values for the In Vitro Score (score, % of positive control peptide) in assay [1] and in assay [2] were 39.2 and 0, respectively.

B15: Synthetic peptide … (peptide)
peptide: IIFWVLRGR
As for B15, the figures for the In Vitro Score (score, % of positive control peptide) in assay [1] and in assay [2] were 35.2 and 0.4, respectively.

B16: Synthetic peptide … (peptide)
peptide: IIFWVSRGR
In the case of B16, the values for the In Vitro Score (score, % of positive control peptide) in assay [1] and in assay [2] were 68.9 and 0, respectively.

B17: Synthetic peptide … (peptide)
peptide: WVARGRKKL
As to B17, the results for the In Vitro Score (score, % of positive control peptide) in assay [1] and in assay [2] were 13.8 and 32.4, respectively.

B18: Synthetic peptide … (peptide)
peptide: AFIIFWVAR
In the case of B18, the results for the In Vitro Score (score, % of positive control peptide) in assay [1] and in assay [2] were 51.8 and 0.2, respectively.

B19: Synthetic peptide … (peptide)
peptide: IIFWVKRGS
Turning to B19, the In Vitro Score (score, % of positive control peptide) in assay [2] stood at 0.4.
